B1: ZNF449 (parent)
chain: RIHSGEEPHKCPECGKRFLRSSDL
B2: PPFIA4 (parent)
chain: VMTLPSDLRKHRRKLLSPVSREEN

Variants of: B1
Experiment: protein stability index of a GFP-peptide fusion (GPS, HEK-293T) (PSI 1-6); higher = more stable
Conditions: c terminus: a fixed tail appended
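Note: lentivirally expressed fusions sorted by FACS into six bins by GFP to DsRed ratio, PSI derived from sequencing read proportions per bin multiplied by bin number.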

Variant | protein stability index
RIHSQEEPHKCPECGKRFLRSSDL [G5Q] | 3.82
RIHSWEEPHKCPECGKRFLRSSDL [G5W] | 3.63
RIHSPEEPHKCPECGKRFLRSSDL [G5P] | 2.85
RIHSYEEPHKCPECGKRFLRSSDL [G5Y] | 3.56
RIHSEEEPHKCPECGKRFLRSSDL [G5E] | 3.62
RIHSVEEPHKCPECGKRFLRSSDL [G5V] | 3.07
RIHSTEEPHKCPECGKRFLRSSDL [G5T] | 4.24
RIHSSEEPHKCPECGKRFLRSSDL [G5S] | 4.04
RIHSDEEPHKCPECGKRFLRSSDL [G5D] | 3.74
RIHSMEEPHKCPECGKRFLRSSDL [G5M] | 3.75
RIHSAEEPHKCPECGKRFLRSSDL [G5A] | 3.79

Variants of: B2
Experiment: as above
Conditions: c terminus: a fixed tail appended

Variant | protein stability index
VMTLPSDLRKHRRKLLSPVSRIEN [E22I] | 3.02
VMTLPSDLRKHRRKLLSPVSRGEN [E22G] | 3.16
VMTLPSDLRKHRRKLLSPVSRKEN [E22K] | 3.67
VMTLPSDLRKHRRKLLSPVSRNEN [E22N] | 3.27
VMTLPSDLRKHRRKLLSPVSRFEN [E22F] | 2.44
VMTLPSDLRKHRRKLLSPVSRSEN [E22S] | 3.68
VMTLPSDLRKHRRKLLSPVSRREN [E22R] | 3.66
VMTLPSDLRKHRRKLLSPVSRVEN [E22V] | 3.86
VMTLPSDLRKHRRKLLSPVSRQEN [E22Q] | 3.19
VMTLPSDLRKHRRKLLSPVSRYEN [E22Y] | 2.93
VMTLPSDLRKHRRKLLSPVSRMEN [E22M] | 3.25
VMTLPSDLRKHRRKLLSPVSRWEN [E22W] | 2.23
VMTLPSDLRKHRRKLLSPVSRCEN [E22C] | 2.8
VMTLPSDLRKHRRKLLSPVSRPEN [E22P] | 2.85
VMTLPSDLRKHRRKLLSPVSRLEN [E22L] | 2.26
VMTLPSDLRKHRRKLLSPVSRAEN [E22A] | 3.12
VMTLPSDLRKHRRKLLSPVSRDEN [E22D] | 3.5
VMTLPSDLRKHRRKLLSPVSRHEN [E22H] | 3.52
VMTLPSDLRKHRRKLLSPVSRTEN [E22T] | 3.22
VMTLPSDLRKHRRKLLSPVSREES [N24S] | 3.91
VMTLPSDLRKHRRKLLSPVSREEG [N24G] | 3.23

Variant | protein stability index
VMTLPSDLRKHRRKLLSPVSREET [N24T] | 3.73
VMTLPSDLRKHRRKLLSPVSREEF [N24F] | 2.44
VMTLPSDLRKHRRKLLSPVSREEV [N24V] | 3.27
VMTLPSDLRKHRRKLLSPVSREEE [N24E] | 4.31
VMTLPSDLRKHRRKLLSPVSREEC [N24C] | 3.33
VMTLPSDLRKHRRKLLSPVSREEQ [N24Q] | 4.05
VMTLPSDLRKHRRKLLSPVSREEP [N24P] | 3.45
VMTLPSDLRKHRRKLLSPVSREEY [N24Y] | 3.02
VMTLPSDLRKHRRKLLSPVSREEA [N24A] | 4.02
VMTLPSDLRKHRRKLLSPVSREEW [N24W] | 2.99
VMTLPSDLRKHRRKLLSPVSREER [N24R] | 3.73
VMTLPSDLRKHRRKLLSPVSREEL [N24L] | 2.94
VMTLPSDLRKHRRKLLSPVSREEM [N24M] | 3.07
VMTLPSDLRKHRRKLLSPVSREED [N24D] | 4.33
VMTLPSDLRKHRRKLLSPVSREEH [N24H] | 3.88
VMTLPSDLRKHRRKLLSPVSREEI [N24I] | 3.34
VMTLPSDLRKHRRKLLSPVSREEK [N24K] | 4.04
VMTLPSDLRKHRRKLLSPVSREVN [E23V] | 3.1
VMTLPSDLRKHRRKLLSPVSREQN [E23Q] | 2.96
VMTLPSDLRKHRRKLLSPVSREFN [E23F] | 2.59
VMTLPSDLRKHRRKLLSPVSRETN [E23T] | 3.04

Variant | protein stability index
VMTLPSDLRKHRRKLLSPVSREIN [E23I] | 3.15
VMTLPSDLRKHRRKLLSPVSRECN [E23C] | 2.88
VMTLPSDLRKHRRKLLSPVSRESN [E23S] | 3.93
VMTLPSDLRKHRRKLLSPVSREGN [E23G] | 2.94
VMTLPSDLRKHRRKLLSPVSREDN [E23D] | 3.52
VMTLPSDLRKHRRKLLSPVSRENN [E23N] | 3.14
VMTLPSDLRKHRRKLLSPVSREWN [E23W] | 2.44
VMTLPSDLRKHRRKLLSPVSREAN [E23A] | 3.04
VMTLPSDLRKHRRKLLSPVSREMN [E23M] | 3.29
VMTLPSDLRKHRRKLLSPVSRELN [E23L] | 3.4
VMTLPSDLRKHRRKLLSPVSREKN [E23K] | 3.72
VMTLPSDLRKHRRKLLSPVSREYN [E23Y] | 2.96
VMTLPSDLRKHRRKLLSPVSRERN [E23R] | 3.06
VMTLPSDLRKHRRKLLSPVSREPN [E23P] | 3.5
VMTLPSDLRKHRRKLLSPVSREHN [E23H] | 3.41
VMTLPSDLRKHRRKLLSPVSGEEN [R21G] | 4
VMTLPSDLRKHRRKLLSPVSPEEN [R21P] | 3.91
VMTLPSDLRKHRRKLLSPVSTEEN [R21T] | 4.12
VMTLPSDLRKHRRKLLSPVSLEEN [R21L] | 3.84
VMTLPSDLRKHRRKLLSPVSWEEN [R21W] | 3.32
VMTLPSDLRKHRRKLLSPVSYEEN [R21Y] | 3.34

Variant | protein stability index
VMTLPSDLRKHRRKLLSPVSVEEN [R21V] | 3.91
VMTLPSDLRKHRRKLLSPVSEEEN [R21E] | 4.47
VMTLPSDLRKHRRKLLSPVSSEEN [R21S] | 4.29
VMTLPSDLRKHRRKLLSPVSAEEN [R21A] | 4.18
VMTLPSDLRKHRRKLLSPVSKEEN [R21K] | 4.44
VMTLPSDLRKHRRKLLSPVSCEEN [R21C] | 4.06
VMTLPSDLRKHRRKLLSPVSNEEN [R21N] | 3.85
VMTLPSDLRKHRRKLLSPVSDEEN [R21D] | 4.16
VMTLPSDLRKHRRKLLSPVSHEEN [R21H] | 4.17
VMTLPSDLRKHRRKLLSPVSMEEN [R21M] | 4.09
VMTLPSDLRKHRRKLLSPVSIEEN [R21I] | 3.9
VMTLPSDLRKHRRKLLSPVSQEEN [R21Q] | 4.36
VMTLPSDLRKHRRKLLSPVSFEEN [R21F] | 3.54
VMTLPSDLRKHRRKLLSPVQREEN [S20Q] | 4.17
VMTLPSDLRKHRRKLLSPVTREEN [S20T] | 3.75
VMTLPSDLRKHRRKLLSPVRREEN [S20R] | 3.84
VMTLPSDLRKHRRKLLSPVPREEN [S20P] | 3.67
VMTLPSDLRKHRRKLLSPVWREEN [S20W] | 2.63
VMTLPSDLRKHRRKLLSPVYREEN [S20Y] | 2.98
VMTLPSDLRKHRRKLLSPVVREEN [S20V] | 3.23

Source: the supplement of paper PMC10567573
